From the supplement of paper PMC5998384 come the findings set out here.

In series [1] the test system is HeLa Kyoto. As to the kind of experiment: solubility in G1/S (NP-40 vs SDS abundance) (log2 ratio); higher = more soluble. The following applies: cell cycle stage: G1/S.
Series [2] concerns HeLa Kyoto. As to the kind of experiment: melting temperature (median over replicates), in situ; higher = more thermally stable.
For series [3], the system named is HeLa Kyoto. As to the kind of experiment: solubility change mitosis vs G1/S (difference of NP-40 vs SDS log2 ratios) (log2 ratio difference); higher = more soluble in mitosis.
In series [4] the test system is HeLa Kyoto. In words: thermal stability score vs G1/S (z-score of summed log2 fold changes over temperatures); higher = more thermally stable than in G1/S.
Setting [5] is: cell cycle stage: early G1 (4.5 h after nocodazole release).
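Throughout, for melting temperature (median over replicates), in situ: HeLa Kyoto cells synchronized by double thymidine or nocodazole block, proteins quantified by TMT10plex mass spectrometry, three independent biological replicates.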
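Throughout, for solubility change mitosis vs G1/S (difference of NP-40 vs SDS log2 ratios): synchronized HeLa Kyoto cells (double thymidine block for G1/S, nocodazole release for mitosis), protein amounts in NP-40 versus SDS lysates quantified by mass spectrometry, three biological replicates.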
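Throughout, for solubility in G1/S (NP-40 vs SDS abundance): HeLa Kyoto cells arrested at G1/S by double thymidine block, proteins quantified by TMT10plex mass spectrometry in mild NP-40 versus SDS extracts, three biological replicates.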
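Throughout, for thermal stability score vs G1/S (z-score of summed log2 fold changes over temperatures): synchronized HeLa Kyoto cells, proteins quantified by TMT10plex mass spectrometry, three biological replicates, mitosis taken 0.5 h after nocodazole release, G1/S directly after double thymidine block.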

Take “MAGLGHPAAFGRATHAVVRALPESLGQHALRSAKGEEVDVARAERQHQLYVGVLGSKLGLQVVELPADESLPDCVFVEDVAVVCEETALITRPGAPSRRKEVDMMKEALEKLQLNIVEMKDENATLDGGDVLFTGREFFVGLSKRTNQRGAEILADTFKDYAVSTVPVADGLHLKSFCSMAGPNLIAIGSSESAQKALKIMQQMSDHRYDKLTVPDDIAANCIYLNIPNKGHVLLHRTPEEYPESAKVYEKLKDHMLIPVSMSELEKVDGLLTCCSVLINKKVDS [DDAH1]”: the “solubility in G1/S (log2)” value in the series on HeLa Kyoto [1] turned out to be 0.157. For the same sequence, the melting temperature in the series on HeLa Kyoto [2] (cell cycle stage: G1/S) stood at 55.3 °C; with HeLa Kyoto [2] (cell cycle stage: mitosis), 56.1 °C. In addition, the “solubility change mitosis (log2)” value in the series on HeLa Kyoto [3] was determined as 0.0143. The thermal stability score with HeLa Kyoto [4] (setting [5]) was 0.276; with HeLa Kyoto [4] (cell cycle stage: mitosis), -0.764.
Turning to “MNPDLRRERDSASFNPELLTHILDGSPEKTRRRREIENMILNDPDFQHEDLNFLTRSQRYEVAVRKSAIMVKKMREFGIADPDEIMWFKKLHLVNFVEPVGLNYSMFIPTLLNQGTTAQKEKWLLSSKGLQIIGTYAQTEMGHGTHLRGLETTATYDPETQEFILNSPTVTSIKWWPGGLGKTSNHAIVLAQLITKGKCYGLHAFIVPIREIGTHKPLPGITVGDIGPKFGYDEIDNGYLKMDNHRIPRENMLMKYAQVKPDGTYVKPLSNKLTYGTMVFVRSFLVGEAARALSKACTIAIRYSAVRHQSEIKPGEPEPQILDFQTQQYKLFPLLATAYAFQFVGAYMKETYHRINEGIGQGDLSELPELHALTAGLKAFTSWTANTGIEACRMACGGHGYSHCSGLPNIYVNFTPSCTFEGENTVMMLQTARFLMKSYDQVHSGKLVCGMVSYLNDLPSQRIQPQQVAVWPTMVDINSPESLTEAYKLRAARLVEIAAKNLQKEVIHRKSKEVAWNLTSVDLVRASEAHCHYVVVKLFSEKLLKIQDKAIQAVLRSLCLLYSLYGISQNAGDFLQGSIMTEPQITQVNQRVKELLTLIRSDAVALVDAFDFQDVTLGSVLGRYDGNVYENLFEWAKNSPLNKAEVHESYKHLKSLQSKL [ACOX1]”, the “solubility in G1/S (log2)” value in the series with HeLa Kyoto [1] came to 0.331. Besides, the melting temperature in the series on HeLa Kyoto [2] (cell cycle stage: G1/S) turned out to be 55.9 °C; in the series with HeLa Kyoto [2] (cell cycle stage: mitosis), 58.3 °C. In addition, the “solubility change mitosis (log2)” value with HeLa Kyoto [3] was -0.212. In addition, the thermal stability score is -1.6 in the series with HeLa Kyoto [4] (setting [5]) and -3.2 with HeLa Kyoto [4] (cell cycle stage: mitosis).
“MAERGELDLTGAKQNTGVWLVKVPKYLSQQWAKASGRGEVGKLRIAKTQGRTEVSFTLNEDLANIHDIGGKPASVSAPREHPFVLQSVGGQTLTVFTESSSDKLSLEGIVVQRAECRPAASENYMRLKRLQIEESSKPVRLSQQLDKVVTTNYKPVANHQYNIEYERKKKEDGKRARADKQHVLDMLFSAFEKHQYYNLKDLVDITKQPVVYLKEILKEIGVQNVKGIHKNTWELKPEYRHYQGEEKSD [GTF2F2]”: the “solubility in G1/S (log2)” value with HeLa Kyoto [1] came out at 0.436. The melting temperature in the series on HeLa Kyoto [2] (cell cycle stage: G1/S) and with HeLa Kyoto [2] (cell cycle stage: mitosis) was 52.6 °C in each case. Also, the “solubility change mitosis (log2)” value in the series with HeLa Kyoto [3] is -0.0476. In addition, the thermal stability score was determined as 0.0893 with HeLa Kyoto [4] (setting [5]) and 0.0418 in the series with HeLa Kyoto [4] (cell cycle stage: mitosis).
On to “MAAAAGRSLLLLLSSRGGGGGGAGGCGALTAGCFPGLGVSRHRQQQHHRTVHQRIASWQNLGAVYCSTVVPSDDVTVVYQNGLPVISVRLPSRRERCQFTLKPISDSVGVFLRQLQEEDRGIDRVAIYSPDGVRVAASTGIDLLLLDDFKLVINDLTYHVRPPKRDLLSHENAATLNDVKTLVQQLYTTLCIEQHQLNKERELIERLEDLKEQLAPLEKVRIEISRKAEKRTTLVLWGGLAYMATQFGILARLTWWEYSWDIMEPVTYFITYGSAMAMYAYFVMTRQEYVYPEARDRQYLLFFHKGAKKSRFDLEKYNQLKDAIAQAEMDLKRLRDPLQVHLPLRQIGEKD [MCU]”, for which the “solubility in G1/S (log2)” value with HeLa Kyoto [1] turned out to be 0.00831. Further, the melting temperature with HeLa Kyoto [2] (cell cycle stage: G1/S) amounted to 53 °C; in the series on HeLa Kyoto [2] (cell cycle stage: mitosis), 52.9 °C. Moreover, in the series on HeLa Kyoto [3], the “solubility change mitosis (log2)” value was -0.0872. For the same sequence, the thermal stability score is 0.0563 in the series with HeLa Kyoto [4] (setting [5]) and -1.45 in the series with HeLa Kyoto [4] (cell cycle stage: mitosis).
For the sequence “MVVLSVPAEVTVILLDIEGTTTPIAFVKDILFPYIEENVKEYLQTHWEEEECQQDVSLLRKQAEEDAHLDGAVPIPAASGNGVDDLQQMIQAVVDNVCWQMSLDRKTTALKQLQGHMWRAAFTAGRMKAEFFADVVPAVRKWREAGMKVYIYSSGSVEAQKLLFGHSTEGDILELVDGHFDTKIGHKVESESYRKIADSIGCSTNNILFLTDVTREASAAEEADVHVAVVVRPGNAGLTDDEKTYYSLITSFSELYLPSST [ENOPH1]”, in the series with HeLa Kyoto [1], the “solubility in G1/S (log2)” value came out at 0.267. The melting temperature with HeLa Kyoto [2] (cell cycle stage: G1/S) stood at 50.6 °C; with HeLa Kyoto [2] (cell cycle stage: mitosis), 50.7 °C. Moreover, the “solubility change mitosis (log2)” value in the series on HeLa Kyoto [3] was -0.175. The thermal stability score in the series with HeLa Kyoto [4] (setting [5]) was 2.1; with HeLa Kyoto [4] (cell cycle stage: mitosis), 3.35.
As to “MGCAPSIHVSQSGVIYCRDSDESSSPRQTTSVSQGPAAPLPGLFVQTDAADAIPPSRASGPPSVARVRRARTELGSGSSAGSAAPAATTSRGRRRHCCSSAEAETQTCYTSVKQVSSAEVRIGPMRLTQDPIQVLLIFAKEDSQSDGFWWACDRAGYRCNIARTPESALECFLDKHHEIIVIDHRQTQNFDAEAVCRSIRATNPSEHTVILAVVSRVSDDHEEASVLPLLHAGFNRRFMENSSIIACYNELIQIEHGEVRSQFKLRACNSVFTALDHCHEAIEITSDDHVIQYVNPAFERMMGYHKGELLGKELADLPKSDKNRADLLDTINTCIKKGKEWQGVYYARRKSGDSIQQHVKITPVIGQGGKIRHFVSLKKLCCTTDNNKQIHKIHRDSGDNSQTEPHSFRYKNRRKESIDVKSISSRGSDAPSLQNRRYPSMARIHSMTIEAPITKVINIINAAQENSPVTVAEALDRVLEILRTTELYSPQLGTKDEDPHTSDLVGGLMTDGLRRLSGNEYVFTKNVHQSHSHLAMPITINDVPPCISQLLDNEESWDFNIFELEAITHKRPLVYLGLKVFSRFGVCEFLNCSETTLRAWFQVIEANYHSSNAYHNSTHAADVLHATAFFLGKERVKGSLDQLDEVAALIAATVHDVDHPGRTNSFLCNAGSELAVLYNDTAVLESHHTALAFQLTVKDTKCNIFKNIDRNHYRTLRQAIIDMVLATEMTKHFEHVNKFVNSINKPMAAEIEGSDCECNPAGKNFPENQILIKRMMIKCADVANPCRPLDLCIEWAGRISEEYFAQTDEEKRQGLPVVMPVFDRNTCSIPKSQISFIDYFITDMFDAWDAFAHLPALMQHLADNYKHWKTLDDLKCKSLRLPSDS [PDE8B]”, the “solubility in G1/S (log2)” value in the series with HeLa Kyoto [1] was -0.134. For the same sequence, the melting temperature in the series with HeLa Kyoto [2] (cell cycle stage: G1/S) came to 49 °C; in the series on HeLa Kyoto [2] (cell cycle stage: mitosis), 49.1 °C. Also, the “solubility change mitosis (log2)” value in the series with HeLa Kyoto [3] was -0.122. In addition, the figures for the thermal stability score in the series with HeLa Kyoto [4] (setting [5]) and with HeLa Kyoto [4] (cell cycle stage: mitosis) were 0.505 and 0.304, respectively.
